Reference: publication doi:10.1101/2023.10.12.561995 (bioRxiv, 2023)

Target: S-protein of WT SARS-CoV-2 (S-trimer) used in BLI (SARS-CoV-2 wildtype, UniProt P0DTC2, stabilised)
Test: BLI

B1: R1-26 (mAb, human IgG1) (antibody, V domains shown)
VH: EVQLVESGGGLVQPGGSLRLSCAASGFTFSSYWMSWVRQAPGKGLEWVANIKQDGSEKYYVDSVKGRFTISRDNAKNSLYLQMNSLRAEDTAVYYCARGQLGPWVGVDYWGQGTLVTVSS
VL: NFMLTQPHSVSESPGKTVTISCTGSSGSIASNYVQWYQQRPGSAPTTVIYEDNQRPSGVPDRFSGSIDSSSNSASLTISGLKTEDEADYYCQSYDSSNWVFGGGTQLTVL
binding result: binds
